Laboratory results taken from paper doi:10.1101/2024.11.07.622398 (bioRxiv, 2024).

T1: mouse UBA7 (mouse, UniProt Q9DBK7 1-977)
T1 sequence (looked up): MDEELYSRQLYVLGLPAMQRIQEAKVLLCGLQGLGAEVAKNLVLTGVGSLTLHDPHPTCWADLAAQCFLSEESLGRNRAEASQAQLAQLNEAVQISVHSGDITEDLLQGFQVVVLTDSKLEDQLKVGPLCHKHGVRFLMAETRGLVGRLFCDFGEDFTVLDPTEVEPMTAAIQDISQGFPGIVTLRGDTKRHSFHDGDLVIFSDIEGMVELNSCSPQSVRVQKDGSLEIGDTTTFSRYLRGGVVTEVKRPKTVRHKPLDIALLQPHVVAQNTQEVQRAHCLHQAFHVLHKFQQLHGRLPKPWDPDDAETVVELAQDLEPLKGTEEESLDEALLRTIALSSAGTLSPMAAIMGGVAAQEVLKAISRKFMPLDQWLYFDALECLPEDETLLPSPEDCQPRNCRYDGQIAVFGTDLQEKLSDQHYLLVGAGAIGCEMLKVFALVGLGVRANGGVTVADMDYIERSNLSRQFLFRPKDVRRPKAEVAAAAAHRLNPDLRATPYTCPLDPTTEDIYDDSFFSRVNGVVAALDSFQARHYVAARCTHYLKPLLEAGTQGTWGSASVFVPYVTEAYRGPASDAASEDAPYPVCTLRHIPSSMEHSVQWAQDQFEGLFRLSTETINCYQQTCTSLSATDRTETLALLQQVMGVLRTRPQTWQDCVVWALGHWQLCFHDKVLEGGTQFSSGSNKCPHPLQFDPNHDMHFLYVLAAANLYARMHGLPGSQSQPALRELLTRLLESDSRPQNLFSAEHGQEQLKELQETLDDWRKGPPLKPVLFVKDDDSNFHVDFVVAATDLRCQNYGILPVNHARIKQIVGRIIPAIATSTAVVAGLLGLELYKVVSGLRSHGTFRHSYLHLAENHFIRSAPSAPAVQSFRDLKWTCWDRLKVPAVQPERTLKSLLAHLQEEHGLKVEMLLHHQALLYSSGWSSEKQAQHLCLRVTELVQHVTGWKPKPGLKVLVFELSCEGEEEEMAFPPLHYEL

T2: human UBA7 (human, UniProt P41226 1-1012)
T2 sequence: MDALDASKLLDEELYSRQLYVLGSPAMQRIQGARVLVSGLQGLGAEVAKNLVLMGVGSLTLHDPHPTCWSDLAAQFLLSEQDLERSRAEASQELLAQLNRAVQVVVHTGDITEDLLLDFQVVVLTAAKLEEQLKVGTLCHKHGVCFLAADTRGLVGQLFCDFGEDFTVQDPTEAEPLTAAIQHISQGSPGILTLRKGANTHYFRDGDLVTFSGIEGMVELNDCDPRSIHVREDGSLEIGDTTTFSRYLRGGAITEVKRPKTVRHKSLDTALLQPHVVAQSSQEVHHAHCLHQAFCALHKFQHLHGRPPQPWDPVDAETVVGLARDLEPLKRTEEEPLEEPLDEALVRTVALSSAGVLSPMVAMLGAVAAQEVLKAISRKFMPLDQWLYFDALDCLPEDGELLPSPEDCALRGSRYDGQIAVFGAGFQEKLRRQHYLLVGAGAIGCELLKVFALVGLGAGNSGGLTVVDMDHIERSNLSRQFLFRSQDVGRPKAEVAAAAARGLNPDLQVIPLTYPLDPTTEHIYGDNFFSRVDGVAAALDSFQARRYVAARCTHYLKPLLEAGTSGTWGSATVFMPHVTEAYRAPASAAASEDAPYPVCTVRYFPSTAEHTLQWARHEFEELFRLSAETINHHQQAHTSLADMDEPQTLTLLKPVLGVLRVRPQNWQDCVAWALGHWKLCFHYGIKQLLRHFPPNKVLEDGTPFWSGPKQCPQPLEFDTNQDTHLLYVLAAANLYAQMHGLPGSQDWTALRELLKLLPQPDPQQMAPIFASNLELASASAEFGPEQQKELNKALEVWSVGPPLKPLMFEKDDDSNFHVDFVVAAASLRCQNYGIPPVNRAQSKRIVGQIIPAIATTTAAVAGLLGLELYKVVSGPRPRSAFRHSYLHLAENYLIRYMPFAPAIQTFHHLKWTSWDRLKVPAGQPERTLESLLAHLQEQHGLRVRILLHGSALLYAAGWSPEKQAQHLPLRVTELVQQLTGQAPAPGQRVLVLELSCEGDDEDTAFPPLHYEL

B1: mouse UBE2L6 (enzyme, UniProt Q9QZU9 1-153, looked up)
chain: MMASKRVAKELESLSKELPPYLRQLSSDDANVLVWHMLLLPDQLPYGLKAFQVRIDFPREYPFKPPTLRFTTKIYHPNVREDGLVCLPLISNENWKPYTKPYQVLEALNVLVSKPNLEEPVRLELADLLTQNPEMFRKKAEEFTLKFGVDRPS
B2: human UBE2L6 (enzyme)
chain: not shown

Experiments:
mouse UBA7 = molecular target: T1, mouse UBA7; assay: disulfide complex formation on non-reducing SDS-PAGE
human UBA7 = molecular target: T2, human UBA7; assay: as above

Binder | binding result (mouse UBA7) | binding result (human UBA7)
B1 | binds | 
B2 |  | binds
